Measured values: patent US20210139602A1 (MEDABOME, published 2021)

Target: T1, rPODXL-v2-Del-Fc fusion protein (human, UniProt O00592-2 23-429, highly glycosylated)
T1 construct: extracellular domain; In-frame fusion of the ECD and human IgG1 Fc, expressed in CHO-K1; The two deletions are written as substitutions to '-'; not shown: human IgG1 Fc from the pFUSE-hIgG1-Fc1 expression vector (InvivoGen)
T1 sequence (looked up): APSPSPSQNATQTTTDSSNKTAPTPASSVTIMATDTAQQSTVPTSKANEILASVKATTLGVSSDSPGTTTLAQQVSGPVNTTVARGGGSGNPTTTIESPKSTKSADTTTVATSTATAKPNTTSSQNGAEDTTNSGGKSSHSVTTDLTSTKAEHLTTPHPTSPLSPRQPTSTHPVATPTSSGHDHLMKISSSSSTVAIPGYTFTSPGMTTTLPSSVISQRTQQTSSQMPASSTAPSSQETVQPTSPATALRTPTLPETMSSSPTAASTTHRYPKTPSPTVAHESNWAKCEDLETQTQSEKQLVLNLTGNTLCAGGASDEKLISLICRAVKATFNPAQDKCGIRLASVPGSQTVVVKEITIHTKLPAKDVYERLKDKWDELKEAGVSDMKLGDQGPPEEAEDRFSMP
Assay: BLI (Octet QKe), mAb captured on anti-mouse IgG Fc (AMC) biosensors, antigen in 1:2 serial dilutions
Protocol: The Octet® QKe System (Molecular Devices, San Jose, Calif.) was used to determine the binding affinities between MAI1738 mAb and the extracellular domains of PODXL-v2 and PODXL-v2-Del. The MAI1738 mAb was immobilized to the Anti-Mouse IgG Fc Capture (AMC) biosensors, followed by loading of the antigen, rPODXL-v2-Fc or rPODXL-v2-Del-Fc, at 1:2 serial dilutions for 5 minutes. The assay was repeated multiple times to determine the average range of the affinity between MAI1738 and rPODXL-v2-Fc or rPODXL-v2-Del-Fc.

Kd: 1.58 nM
B1: MAI1738 mAb (antibody, V domains shown)
VH: EVKLVESGGGLVKPGGSLKVSCAASGFTFSTYTMSWVRQTPEKRLEWVATISGGVIYTYYPDSVKGRFTISRDDAKNTLYLQMSSLRSEDTALYYCARHYSNYEGQGMDSWGQGTSVTVSS
VL: DIVLTQSPVTLSVTPGDSVSLSCRASQSINNNLHWYQQKSHESPRLLIKYASQSISGIPPRFSGSRSGTDFTLSINTVETEDFGVYFCQQSNSWPLTFGAGTKLELKR
notes: Mouse monoclonal antibody from a hybridoma (A/J mice); it is detected with anti-mouse IgG-Fc; also called anti-PODXL-v2 monoclonal antibody; second subclone of MS17-38
